Measured values as given in patent US10370642B2, “Hematopoietic progenitor cell populations having affinity for E-selectin / L-selectin” (priority 2000, dated 2019).

B1: KG1a PSGL-1: PSGL-1 immunoaffinity purified (PL-2) from KG1a cells (protein)
chain: QATEYEYLDYDFLPETEPPEMLRNSTDTTPLTGPGTPESTTVEPAARRSTGLDAGGAVTELTTELANMGNLSTDSAAMEIQTTQPAATEAQTTQPVPTEAQTTPLAATEAQTTRLTATEAQTTPLAATEAQTTPPAATEAQTTQPTGLEAQTTAPAAMEAQTTAPAAMEAQTTPPAAMEAQTTQTTAMEAQTTAPEATEAQTTQPTATEAQTTPLAAMEALSTEPSATEALSMEPTTKRGLFIPFSVSSVTHKGIPMAASNLSVNYPVGAPDHISVKQCLLAILILALVATIFFVCTVVLAVRLSRKGHMYPVRNYSPTEMVCISSLLPDGGEGPSATANGGLSKAKSPGLTPEPREDREGDDLTLHSFLP

What was measured:
CD44 = assay: [35S]-SO4 metabolic labeling of CD44 in KG1a cells; type: cell-based, human; conditions: 10 mM sodium chlorate for 24 hr after bromelain
Text: To determine if CD44 on KG1a cells is sulfated, KG1a cell cultures were metabolically labeled with [^35S]-SO4. CD44 immunoprecipitated from these cells was indeed sulfated (FIG. 11 A). To test whether sulfation was critical for L-selectin ligand activity of CD44, KG1a cells were pretreated with 0.1% bromelain, a protease that eliminates all KG1a HCLL activity (Sackstein, R. & Dimitroff, C. J. (2000). Blood. 96, 2765-2774) and also removes CD44 from the cell surface (Hale, L. P. & Haynes, B. F. (1992). J. Immunol 149:3809-3816). Following bromelain digestion of KG1a, re-expression of HCELL requires de novo protein synthesis, and protein synthesized in the presence of chlorate (a metabolic inhibitor of both protein and carbohydrate sulfation) is non-sulfated (Sackstein, R., Fu, L. and Allen, K. L. (1997). Blood. 89:2773-2781). Therefore, KG1a was treated with bromelain and confirmed removal of CD44 by flow cytometry. The KG1a cells were cultured in the absence or presence of 10 mM sodium chlorate for 24 hr and metabolically radiolabeled the cells for the last 8 hr of incubation with [^35S]-SO4 in sulfate-deficient CRCM-30 medium. […] This effect of chlorate was specific for sulfate incorporation and not a general inhibition of CD44 protein synthesis, as [^35S]-methionine/cysteine metabolic radioloabeling of CD44 was identical in chlorate- and non-chlorate-treated cell populations.

L-selectin [1] = assay: Blot rolling assay with L-selectin-expressing lymphocytes; type: cell-based; conditions: 2.3 dynes/cm^2
Description: L-selectin-expressing lymphocytes were isolated as previously described (Oxley, S. M. & Sackstein, R. (1994). Blood. 84:3299-3306; Sackstein, R., Fu, L. and Allen, K. L. (1997) Blood. 89:2773-2781), washed twice in HBSS and suspended at 2×10^7/ml in HBSS/10 mM HEPES/2mMCaCl2 (H/H/Ca^++)/10% glycerol. Cell lysate material is separated by SDS-PAGE and transferred to PVDF under standard blotting conditions. Western blots of KG1a membrane preparations stained with HECA-452, A3D8 or Hermes-1 were rendered transparent by incubating them in H/H/Ca^++/10% glycerol. To study L-selectin-mediated adhesive interactions, the blots were placed in the parallel plate flow chamber and lymphocytes were perfused into the chamber at a shear force of 2.3 dynes/cm^2 and cellular adhesive interactions are observed by video microscopy and analyzed in real time.
The number of lymphocytes rolling on and between each immunostained banding region was quantified from five independent fields under 200× magnification on the video monitor using molecular weight markers as guides to help align and visualize the proteins of interest. A minimum of 3 experiments were performed, and results were expressed as the mean of cell rolling/field.

E-selectin [2] = molecular target: T1, E-selectin (Homo sapiens, UniProt P16581); assay: Blot rolling assay with CHO-E cells; type: cell-based; conditions: immunoprecipitated CD44 on Western blot; 3.8 dynes/cm^2
T1 construct: stably transfected with full-length cDNA encoding human E-selectin; expressed in transfected cells
T1 sequence (P16581 22-610): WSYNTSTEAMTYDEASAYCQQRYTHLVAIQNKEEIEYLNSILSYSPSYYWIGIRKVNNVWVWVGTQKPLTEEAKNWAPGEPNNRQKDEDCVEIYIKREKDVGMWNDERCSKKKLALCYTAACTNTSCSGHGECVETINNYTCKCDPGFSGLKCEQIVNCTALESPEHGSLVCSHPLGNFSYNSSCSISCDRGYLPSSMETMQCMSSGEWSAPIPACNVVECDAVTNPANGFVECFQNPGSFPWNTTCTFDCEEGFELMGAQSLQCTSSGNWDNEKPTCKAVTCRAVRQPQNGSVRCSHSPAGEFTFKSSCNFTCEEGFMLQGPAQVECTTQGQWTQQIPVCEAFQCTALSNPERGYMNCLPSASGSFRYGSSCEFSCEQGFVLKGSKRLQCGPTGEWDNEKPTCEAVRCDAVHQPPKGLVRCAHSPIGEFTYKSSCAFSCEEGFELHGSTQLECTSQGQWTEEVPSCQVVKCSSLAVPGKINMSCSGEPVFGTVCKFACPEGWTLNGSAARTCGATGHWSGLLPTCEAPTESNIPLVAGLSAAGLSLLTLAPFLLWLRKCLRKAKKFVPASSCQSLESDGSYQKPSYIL
Description: The blot rolling assay was performed as previously described (Dimitroff et al., 2000). Briefly, CHO-E, CHO—P or CHO-Mock transfectants were isolated as described above, washed twice in HBSS and suspended at 10^7/ml in HBSS/10 mM HEPES/2mMCaCl2 (H/H/Ca++)/10% glycerol. Western blots of HPC membrane preparations stained with HECA-452 were rendered transparent by incubating them in H/H/Ca++/10% glycerol. The blots were then placed in the parallel-plate flow chamber, and CHO transfectants (2×10^6/ml) were perfused into the chamber. After allowing the cells to come in contact with the blotting membrane, the flow rate was adjusted to exert a shear stress of 3.8 dynes/cm^2. The viscosity of 10% glycerol adhesion assay medium was considered in the calculation of shear stress values. The number of cells rolling on and between each immunostained banding region was quantified under 100× magnification within each field of view on the video monitor using molecular weight markers (Kaleidoscope Molecular Weight Markers, Bio-Rad Lab.; See Blue® from Novex, Inc.) as guides to help align and visualize the apparent molecular weights of the proteins of interest. A minimum of 3 experiments was performed and results were expressed as the mean±SD of cell rolling/field at 100× magnification.

E-selectin [3] = molecular target: T1, E-selectin; assay: CHO-E cell rolling on immobilized immunoprecipitates, parallel-plate flow chamber; type: cell-based; conditions: for E-selectin ligand activity (CHO-E cell rolling): immunoprecipitates on plastic, 2.8 dynes/cm^2
Description: CD44 was immunoprecipitated from untreated cell lysates or from cell lysates treated with N-glycosidase-F (0.8 U/ml) Vibrio cholerae neuraminidase (0.1 U/ml) or a-L-fucosidase (80 mU/ml), and PSGL-1 was immunoprecipitated from untreated cell lysates as previously described (Sackstein and Dimitroff, 2000; Dimitroff et al., 2000).
CD44 or PSGL-1 immunoprecipitates were spotted onto plastic petri dishes, fixed in 3% glutaraldehyde and incubated in 0.2M lysine to block unreactive aldehyde groups, and then non-specific binding was prevented by incubating in 100% FBS for 1 hr at RT. Fixed spots were also treated with Vibrio cholerae neuraminidase (0.1 U/ml assay medium), which was overlaid onto the spots and incubated at 37° C. for 1 hr. […] The flow rate was then increased to achieve a shear stress of 2.8 dynes/cm^2. The frequency of cells rolling per 100× magnification field was determined, and data were expressed as the mean±standard deviation of 8 fields visualized from a minimum of 3 experiments.

L-selectin [4] = molecular target: T2, L-selectin (Rattus norvegicus, UniProt P30836); assay: Stamper-Woodruff assay, lymphocyte adherence to immunoprecipitated CD44 and PSGL-1; type: cell-based; conditions: 0.75 μg/spot (PSGL-1 1 μg/spot); 80 rpm, 4° C.; 100× mag.
T2 construct: L-selectin naturally expressed on leukocytes; endogenous in cells; host or cells: lymphocytes (rat thoracic duct lymphocytes; human PBMC also prepared)
T2 sequence (P30836 39-372): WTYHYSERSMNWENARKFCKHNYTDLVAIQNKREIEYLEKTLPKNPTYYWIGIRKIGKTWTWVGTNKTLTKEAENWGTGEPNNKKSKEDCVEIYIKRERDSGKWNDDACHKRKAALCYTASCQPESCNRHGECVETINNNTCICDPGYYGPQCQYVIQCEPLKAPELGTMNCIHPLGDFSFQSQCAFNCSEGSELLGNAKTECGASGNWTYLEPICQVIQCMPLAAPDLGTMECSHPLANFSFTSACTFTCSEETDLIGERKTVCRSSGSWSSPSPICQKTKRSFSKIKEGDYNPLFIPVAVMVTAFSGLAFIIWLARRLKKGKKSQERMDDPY
Description: These protein spots were then fixed in 3% glutaraldehyde, unreactive aldehyde groups were blocked in 0.2M lysine and slides were kept in RPMI-1640 without NaBicarbonate/2% FBS until ready for testing. Lymphocytes (10^7/ml RPMI-1640 without NaBicarbonate/5% FBS) were overlayed onto these fixed immunoprecipitates and incubated on an orbital shaker at 80 rpm for 30 min. at 4° C. The number of adherent lymphocytes was quantified by light microscopy using an ocular grid under 100× magnification (a minimum of 5 fields/slide, 2 slides/experiment, and 3 separate experiments). Data were presented as the mean number of bound lymphocytes±standard deviation. KG1a CD34 and L-selectin control immunoprecipitates were also tested in this manner. To verify the dependence for sialic acid, glutaraldehyde-fixed spots were treated with Vibrio cholerae neuraminidase (0.1 U/ml RPMI-1640 without NaBicarbonate/2% FBS for lhr at 37° C.).
Immunoaffinity purified material (0.75-3 μg/spot) was spotted onto glass slides for analyses in the Stamper-Woodruff assay (See below for assay description). For autoradiographic analysis of immunoprecipitated [^35S]-methionine-radiolabeled CD44 and PSGL-1, immunoprecipitates were spotted onto glass slides, allowed to dry and exposed Kodak BioMax-MR film for 12 h at −80° C. Densitometric analysis (optical density) of the autoradiograms was performed with a Hewlett-Packard Scanj et 5200C scanner and NIH Image processing and analysis program.

P-selectin = molecular target: T3, P-selectin (Homo sapiens, UniProt P16109); assay: CHO-P cell rolling on immobilized immunoprecipitates, parallel-plate flow chamber; type: cell-based; conditions: 2.8 dynes/cm^2
T3 construct: CHO-P (CHO stably transfected with human cDNA encoding full length P-selectin); expressed in transfected cells
T3 sequence (P16109 42-830): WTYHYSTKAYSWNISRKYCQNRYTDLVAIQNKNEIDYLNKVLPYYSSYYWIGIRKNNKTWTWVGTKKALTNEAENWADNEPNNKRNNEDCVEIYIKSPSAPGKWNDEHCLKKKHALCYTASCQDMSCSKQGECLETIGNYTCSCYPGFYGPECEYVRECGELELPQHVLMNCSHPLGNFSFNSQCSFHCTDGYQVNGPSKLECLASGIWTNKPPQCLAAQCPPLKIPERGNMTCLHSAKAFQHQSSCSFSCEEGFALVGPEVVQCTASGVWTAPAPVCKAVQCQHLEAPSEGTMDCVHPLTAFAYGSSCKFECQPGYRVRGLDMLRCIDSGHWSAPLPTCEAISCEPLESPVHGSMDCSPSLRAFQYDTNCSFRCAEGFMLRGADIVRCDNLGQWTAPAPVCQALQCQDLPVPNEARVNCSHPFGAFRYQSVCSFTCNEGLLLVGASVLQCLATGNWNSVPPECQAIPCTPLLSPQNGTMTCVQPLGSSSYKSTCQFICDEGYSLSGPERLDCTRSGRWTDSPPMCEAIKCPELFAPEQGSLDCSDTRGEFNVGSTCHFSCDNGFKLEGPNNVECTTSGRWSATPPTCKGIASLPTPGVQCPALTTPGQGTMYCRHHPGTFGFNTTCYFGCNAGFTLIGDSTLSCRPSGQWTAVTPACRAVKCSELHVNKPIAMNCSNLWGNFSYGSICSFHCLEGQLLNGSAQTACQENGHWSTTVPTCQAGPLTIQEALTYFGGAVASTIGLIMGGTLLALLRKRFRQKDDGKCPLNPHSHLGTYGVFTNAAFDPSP
Description: CD44 or PSGL-1 immunoprecipitates were spotted onto plastic petri dishes, fixed in 3% glutaraldehyde and incubated in 0.2M lysine to block unreactive aldehyde groups, and then non-specific binding was prevented by incubating in 100% FBS for 1 hr at RT. Fixed spots were also treated with Vibrio cholerae neuraminidase (0.1 U/ml assay medium), which was overlaid onto the spots and incubated at 37° C. for 1 hr. The protein dishes were placed in the parallel-plate flow chamber and CHO-E, CHO-P (CHO stably transfected with human cDNA encoding full length P-selectin), CHO-P cells treated with function blocking anti-P-selectin moAb (clone AK-4; Pharmingen) (10 μg/ml), CHO-E cells treated with function blocking anti-E-selectin Abs (10 μg/ml) (clone 68-5H1 1) or Mock transfectants were perfused into the chamber (2×10^6/ml H/H/Ca++) at a flow rate of 0.2 ml/min until the cells were in contact with the substrate. The flow rate was then increased to achieve a shear stress of 2.8 dynes/cm^2. The frequency of cells rolling per 100× magnification field was determined, and data were expressed as the mean±standard deviation of 8 fields visualized from a minimum of 3 experiments.

Row | Molecule | incorporation of [35S]-SO4 into immunoprecipitable CD44 (Hermes-1) (CD44) | L-selectin ligand activity (lymphocyte tethering and rolling) in blot rolling assay (L-selectin [1]) | E-selectin ligand activity (CHO-E cell rolling) in blot rolling assay (E-selectin [2]) | E-selectin ligand activity (CHO-E cell rolling) (E-selectin [3]) | Mean Number of Bound Lymphocytes (L-selectin [4]) | P-selectin ligand activity (CHO-P cell rolling) (P-selectin) | CHO-E cell rolling (E-selectin [3]; lower shear stress of 0.6 dynes/cm^2)
1 | [O-][Cl+2]([O-])O [chlorate, sodium chlorate] | completely inhibited | – | – | – | – | – | –
2 | KG1a N-glycosidase-F CD44: CD44 immunoprecipitated from N-glycosidase-F-treated KG1a membrane protein | – | abolished all L-selectin-mediated lymphocyte tethering and rolling | completely abrogated CHO-E cell rolling | abrogated CHO-E cell rolling | 30.7 | – | –
3 | B1 | – | – | – | significantly lower | 44.8 | rolled on KG1a PSGL-1 | equivalent to that of CD44
